Reference: US20230331779A1 (SHAANXI MICOT TECHNOLOGY, published 2023)

Molecular target: T1, calcium-sensing receptor (CaSR)
T1 sequence (P41180 whole entry, species assumed, looked up): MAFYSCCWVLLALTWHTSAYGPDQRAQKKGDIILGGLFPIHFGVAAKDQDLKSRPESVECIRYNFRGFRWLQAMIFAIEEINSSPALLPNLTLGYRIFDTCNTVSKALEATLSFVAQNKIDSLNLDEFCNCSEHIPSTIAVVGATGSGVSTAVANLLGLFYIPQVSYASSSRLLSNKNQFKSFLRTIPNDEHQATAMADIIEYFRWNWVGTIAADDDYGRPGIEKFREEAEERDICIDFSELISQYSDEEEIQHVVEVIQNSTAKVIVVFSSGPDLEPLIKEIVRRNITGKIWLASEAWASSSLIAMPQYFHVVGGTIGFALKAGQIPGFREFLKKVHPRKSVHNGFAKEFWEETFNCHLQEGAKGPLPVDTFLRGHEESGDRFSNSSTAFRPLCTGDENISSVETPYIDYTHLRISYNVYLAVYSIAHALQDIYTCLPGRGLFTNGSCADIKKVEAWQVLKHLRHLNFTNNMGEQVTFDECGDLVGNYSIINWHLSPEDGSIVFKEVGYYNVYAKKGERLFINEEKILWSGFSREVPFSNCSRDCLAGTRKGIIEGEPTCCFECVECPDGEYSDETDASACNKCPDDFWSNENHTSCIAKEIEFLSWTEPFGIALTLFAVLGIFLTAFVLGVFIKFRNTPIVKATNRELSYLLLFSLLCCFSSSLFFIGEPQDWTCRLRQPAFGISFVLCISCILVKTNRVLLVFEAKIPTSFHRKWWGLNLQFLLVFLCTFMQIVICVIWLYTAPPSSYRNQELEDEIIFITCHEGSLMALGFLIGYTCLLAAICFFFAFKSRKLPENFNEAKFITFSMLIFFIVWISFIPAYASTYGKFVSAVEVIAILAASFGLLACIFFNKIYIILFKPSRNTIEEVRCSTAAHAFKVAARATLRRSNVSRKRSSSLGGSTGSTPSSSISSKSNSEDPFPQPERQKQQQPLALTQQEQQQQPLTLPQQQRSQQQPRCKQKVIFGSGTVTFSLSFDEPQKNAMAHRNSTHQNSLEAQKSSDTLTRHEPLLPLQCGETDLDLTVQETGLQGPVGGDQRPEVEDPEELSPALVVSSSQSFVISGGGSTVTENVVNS
Assay: cell-based or functional assay

B1: polypeptide of Example 1 (active polypeptide SEQ ID NO: 10) (peptide)
peptide 1: CARRRAR
peptide 2: YXFGGC
modifications: D-Tyr 1; Aib (2-aminoisobutyric acid) 2; D-Phe 3; L-Cys 6 disulfide-bonded to D-Cys 1 of the Y chain; free amino and carboxyl termini (H2N-D-Tyr-Aib-D-Phe-Gly-Gly-L-Cys-OH); N-terminal acetyl (Ac); C-terminal amide (NH2); all residues D-amino acids (Ac-D-Cys-D-Ala-D-Arg-D-Arg-D-Arg-D-Ala-D-Arg-NH2); D-Cys 1 disulfide-bonded to L-Cys 6 of the X chain
EC50 of agonistic activity on HEK293-CaSR cells, HTRF IP-1 competition method, at a Ca2+ concentration of 1.2 mM: 84.7 µM
EC50 of agonistic activity on HEK293-CaSR cells, HTRF IP-1 competition method, in the absence of Ca2+: 980 µM
